Series [1] relates to PIP4K2A (WT) (Homo sapiens). As to the kind of experiment: EMSA. Conditions: EMSA 60 min 16 C, 5 ug yeast tRNA, 40 U RNase inhibitor; fluorescent: 500 mM NaCl, 10 mM Tris pH 7.5, 10% glycerol; radioactive: 30 mM KCl, 1 mM MgCl2, 40 mM …. In general terms: A gel shift assay detects complexes by their altered migration in electrophoresis.
In series [2] the test system is PIP4K2A G131L Y138F (kinase dead) (Homo sapiens). Kind of series: EMSA. Conditions: EMSA 60 min 16 C, 5 ug yeast tRNA, 40 U RNase inhibitor; fluorescent: 500 mM NaCl, 10 mM Tris pH 7.5, 10% glycerol; radioactive: 30 mM KCl, 1 mM MgCl2, 40 mM ….

As for “RAD51-short (5' proximal 35 bases of RAD51 3'UTR)”, the Kd (usually a measure of binding affinity in units of concentration) is 0.5 µM in series [1] and 0.85 µM in series [2].
For RAD51 3'UTR, the equilibrium dissociation constant (Kd) in series [1] came to 0.75 µM.

The record behind these values is publication PMC8194828.
